Reference: publication PMC4180279

What was measured:
[1] = biological target: GST-P/Q, residues 1898-2035 of the rat P/Q channel α1 subunit (Cav2.1) C-terminal tail (rat); experiment: pull-down; 5 μM GST fusion protein immobilised on glutathione-agarose; 5 μM GST-free NCS-1 or CaM added; 150 mM KCl, 20 mM HEPES pH 7.4, 10% glycerol, 5 mM NTA, 5 mM EGTA, 1 mM DTT, 0.1% NP-40, with 1 μM free Ca2+; 1 h, 4 °C; Western blot, densitometry normalised to NCS-1 on GST-PQ with Ca2+ = 100%
[2] = biological target: Cav2.1 P/Q-type calcium channel IQ domain (Homo sapiens) (UniProt O00555); experiment: ITC; conditions: cited from earlier work
Chain of Cav2.1 P/Q-type calcium channel IQ domain (Homo sapiens) (O00555 1963-1983): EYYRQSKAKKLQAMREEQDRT

Chain of Neuronal calcium sensor-1 (NCS-1), GST-free recombinant protein from the GST-NCS-1 plasmid (P62166 whole entry): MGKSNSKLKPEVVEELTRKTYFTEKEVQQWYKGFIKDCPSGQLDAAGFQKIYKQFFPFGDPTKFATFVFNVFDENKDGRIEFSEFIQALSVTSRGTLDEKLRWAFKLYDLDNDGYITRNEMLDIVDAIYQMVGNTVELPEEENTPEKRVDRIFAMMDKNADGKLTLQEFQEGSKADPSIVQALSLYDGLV

| Substance | average NCS-1 bound (%) [1] [%] | Kd [2] [nM] |
| --- | --- | --- |
| Neuronal calcium sensor-1 (NCS-1), GST-free recombinant protein from the GST-NCS-1 plasmid (from UniProt P62166 1-190) (natural protein) | 100 |  |
| calmodulin C lobe C lobe (from UniProt P0DP23) |  | 4.32 |
